Laboratory results published in publication PMC10120035, “HY5 functions as a systemic signal by integrating BRC1-dependent hormone signaling in tomato bud outgrowth”.
Substitutions are numbered along the chain they refer to.

B1: LOG4-A WT (dsDNA)
DNA 1: AGTAATCCTATTAGAAAAATGGGCCATGGACCTTGCCTTACCTAC
DNA 2: GTAGGTAAGGCAAGGTCCATGGCCCATTTTTCTAATAGGATTACT
B2: LOG4-A mut (dsDNA)
DNA 1: B1 DNA 1 with G21A, G22A, G23A, C24A, C25A
DNA 2: B1 DNA 2 with G21T, G22T, C23T, C24T, C25T
B3: CKX7-A WT (dsDNA)
DNA 1: CCCCGACATCTAAAGAGTGGGCCCAAATATCAGATAAATCAAGAACA
DNA 2: TGTTCTTGATTTATCTGATATTTGGGCCCACTCTTTAGATGTCGGGG
B4: CKX7-A mut (dsDNA)
DNA 1: B3 DNA 1 with G19A, G20A, G21A, C23A, C24A
DNA 2: B3 DNA 2 with G24T, G25T, C27T, C28T, C29T
B5: GA2ox4-B WT (dsDNA)
DNA 1: TCCCAAATTTTCGAATTATTAGGGGACCATTTTTTTTAAAAAAA
DNA 2: TTTTTTTAAAAAAAATGGTCCCCTAATAATTCGAAAATTTGGGA
B6: GA2ox4-B mut (dsDNA)
DNA 1: B5 DNA 1 with G23A, G24A, G25A, C27A, C28A
DNA 2: B5 DNA 2 with G17T, G18T, C20T, C21T, C22T
B7: GA2ox5-A WT (dsDNA)
DNA 1: CAATTGTTTTGTGGGGAAAGGGTGCCCTTTCTTTTTTATTCCAA
DNA 2: TTGGAATAAAAAAGAAAGGGCACCCTTTCCCCACAAAACAATTG
B8: GA2ox5-A mut (dsDNA)
DNA 1: B7 DNA 1 with G21A, G22A, C25A, C26A
DNA 2: B7 DNA 2 with G19T, G20T, C23T, C24T

Biological target: BRC1 (His-BRC1) (Solanum lycopersicum (tomato), UniProt A0A3Q7HTP5 1-406)
Sequence (A0A3Q7HTP5 entry or part of it): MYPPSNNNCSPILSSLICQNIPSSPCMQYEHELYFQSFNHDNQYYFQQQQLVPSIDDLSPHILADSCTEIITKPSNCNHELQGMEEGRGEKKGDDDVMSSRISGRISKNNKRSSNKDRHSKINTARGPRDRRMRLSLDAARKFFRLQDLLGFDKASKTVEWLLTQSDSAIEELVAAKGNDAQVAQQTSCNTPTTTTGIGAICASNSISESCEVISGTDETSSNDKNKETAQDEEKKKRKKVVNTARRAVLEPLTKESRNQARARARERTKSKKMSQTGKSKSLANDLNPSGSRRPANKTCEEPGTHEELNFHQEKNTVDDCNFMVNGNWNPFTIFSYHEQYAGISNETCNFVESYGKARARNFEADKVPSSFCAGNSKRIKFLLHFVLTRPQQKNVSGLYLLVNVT
Assay: EMSA; Light Shift Chemiluminescent EMSA kit (Thermo 20148) per manufacturer; buffer, salt, pH and temperature not stated
Conditions: protein: recombinant; tags: His (pET-32a); chain copies: 2; label: 3' biotin (probe); blunt

Binder	binding result
B1	binds
B2	no binding
B3	binds
B4	no binding
B5	binds
B6	no binding
B7	binds
B8	no binding
